Where two headings read alike, the source gives them in different places.

For test [1], the target named is T1, Human CD27, full length on the cell surface (human, UniProt P26842 21-260). The test can be described thus: cell-based or functional assay.
Test [2] has as its target T2, Human CD27 ECD, monomeric soluble (construct limits not stated) (human, UniProt P26842 20-191).
T2 construct: extracellular domain; target of the Biacore assays; also called monomeric soluble CD27; CD27-His
The test can be described thus: Biacore SPR, purified mAb.

Test [3] deals with T3, Human CD27 ECD truncated (ECD 1-121, cleavage site, His6) (human).
T3 construct: also called human CD27 ECD with His Tag; CD27-His
T3 chain: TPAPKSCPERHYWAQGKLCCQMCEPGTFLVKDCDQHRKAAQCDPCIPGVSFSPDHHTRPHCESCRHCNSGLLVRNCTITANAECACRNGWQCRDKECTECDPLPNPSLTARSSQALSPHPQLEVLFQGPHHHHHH
As to the kind of experiment: ProteOn SPR; mAb captured via anti-human Fc; CD27 ECD as analyte.

Test [4] has as its target T1, Human CD27, full length on the cell …. The test can be described thus: cell-based or functional assay. This is another data set of the same source.
For test [5] the target is unchanged. As to the kind of experiment: cell-based or functional assay. The source holds these as a separate data set.
Test [6] deals with T2, Human CD27 ECD, monomeric soluble …. The test can be described thus: Biacore SPR, purified mAb, CD27 ECD.
Test [7] deals with T3, Human CD27 ECD truncated (ECD 1-121, …). The test can be described thus: ELISA of culture supernatants; binding to CD27 ECD; signal relative to the parent.
For test [8], the target named is T1, Human CD27, full length on the cell …. The test can be described thus: cell-based or functional assay. The source holds these as a separate data set.
In test [9] the target is T2, Human CD27 ECD, monomeric soluble …. As to the kind of experiment: Biacore SPR, purified mAb. This is another data set of the same source.
For test [10], the target named is T4, Recombinant human CD27/Fc chimera (R&D Systems, Cat#382-CD) (human, UniProt P26842 20-191).
T4 construct: extracellular domain; bought protein; also called huCD27-Fc; Hu CD27 Fc; Fc part of the bought chimera not given
As to the kind of experiment: inhibition of IM-9 (CD70+) cell binding to immobilized CD27/Fc.

Test [11] concerns the target T2, Human CD27 ECD, monomeric soluble …. As to the kind of experiment: Biacore SPR; mAb captured via anti-mouse Fc; CD27 ECD as analyte; 25 C.
Test [12] concerns the target T1, Human CD27, full length on the cell …. The test can be described thus: cell-based or functional assay. This is another data set of the same source.
For test [13] the target is unchanged. As to the kind of experiment: cell-based or functional assay. This is another data set of the same source.
The target of test [14] is T3, Human CD27 ECD truncated (ECD 1-121, …). As to the kind of experiment: ProteOn SPR, purified mAb, CD27-His.
For test [15] the target is unchanged. As to the kind of experiment: ProteOn SPR, culture supernatants.
Test [16] addresses T2, Human CD27 ECD, monomeric soluble …. The test can be described thus: Biacore SPR, purified mAb, CD27-His.
The target of test [17] is T3, Human CD27 ECD truncated (ECD 1-121, …). As to the kind of experiment: ProteOn SPR, culture supernatants.

T2 sequence (P26842 20-191): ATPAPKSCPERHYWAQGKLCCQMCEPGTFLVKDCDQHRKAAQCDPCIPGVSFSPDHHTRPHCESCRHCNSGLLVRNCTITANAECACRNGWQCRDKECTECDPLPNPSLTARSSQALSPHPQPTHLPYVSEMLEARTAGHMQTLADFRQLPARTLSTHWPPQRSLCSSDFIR
T4 sequence (P26842 20-191, change not shown): as the sequence (P26842 20-191) above

B1: M41 (antibody, human IgG1, V domains shown)
VH: EVKLVESGGGLVKPGGSLKLSCAASGFTFSSYTMSWVRQTPEKRLEWVAYISSGGGNTYYPDSVKGRFTISRDNARNTLYLQMSSLRSEDTAMYYCSRHRGNPFDYWGQGTTLTVSS
VL: DIVLTQSPASLAVSLGQRATISCRASKSVSTSGYSFMHWYQQKPGQPPKLLIYLASNLESGVPARFSGSGSGTDFTLNIHPVEEEDAATYYCQHSRELPWTFGGGTKLEIK
notes: chimeric; also called C2191 parent; C2191 parent chimera
For B1, in [1], the “NF-kB Assay IC50” value stood at 2.3 nM. The figures for the Kd in test [2], in test [3] and in [6] were 23.7 nM, 10.3 nM and 13.7 nM, respectively. The same molecule returned a koff in test [2] of 0.0103 s⁻¹. Also, the kon in test [2] is 435000 M⁻¹ s⁻¹. In addition, the “NFkB IC50” value in test [4] was 0.3 nM; in test [5], 0.045 nM. The ELISA signal in test [7] was 1.

B2: M69 (antibody, human IgG1, V domains shown)
VH: EVQLVQSGAEVKKPGESLKISCKGSGYAFSSSWMNWVRQMPGKGLEWMGRIYPGDGDTNYSPSFQGQVTISADKSISTAYLQWSSLKASDTAMYYCARSDYYGDYGFAYWGQGTLVTVSS
VL: DIVMTQSPDSLAVSLGERATINCKASQSVDYAGDSYMNWYQQKPGQPPKLLIYAASNLESGVPDRFSGSGSGTDFTLTISSLQAEDVAVYYCQQSNEDPYTFGQGTKLEIK
notes: also called H28/L35; C2177 HFR variant
With B2, the Kd in test [3] amounted to 0.77 nM. Moreover, the “NFkB IC50” value in test [4] amounted to 0.11 nM. In addition, the ELISA signal in test [7] was determined as 1.09.

B3: M709 (antibody, V domains shown)
VH: EVQLVQSGAEVKKPGESLKISCKGSGYAFSSSWMNWVRQMPGKGLEWMGRIYAGDADTAYSPSFQGQVTISADKSISTAYLQWSSLKASDTAMYYCARSDYYGDYGFAYWGQGTLVTVSS
VL: DIVMTQSPDSLAVSLGERATINCKASQSVDYAGESFMNWYQQKPGQPPKLLIYAASNLESGVPDRFSGSGSGTDFTLTISSLQAEDVAVYYCQQSNEDPYTFGQGTKLEIK
notes: also called single-gene DNA ID 709
With B3, the “NF-kB Assay IC50” value in test [8] is 0.272 nM. In test [9], binding was characterised by a dissociation constant (Kd) of 0.026 nM, the koff worked out at 5.89e-05 s⁻¹ and the kon is 2.3e+06 M⁻¹ s⁻¹.

B4: M710 (antibody, V domains shown)
VH: EVQLVQSGAEVKKPGESLKISCKGSGYAFSSSWMNWVRQMPGKGLEWMGRIYAGDADTNYAPSFQGQVTISADKSISTAYLQWSSLKASDTAMYYCARSDYYGDYGFAYWGQGTLVTVSS
VL: DIVMTQSPDSLAVSLGERATINCKASQSVDYAGESFMNWYQQKPGQPPKLLIYAASNLESGVPDRFSGSGSGTDFTLTISSLQAEDVAVYYCQQSNEDPYTFGQGTKLEIK
notes: also called single-gene DNA ID 710
Regarding B4, the “NF-kB Assay IC50” value in [8] came out at 0.32 nM. Further, in test [9], binding was put at a Kd of 0.019 nM, the koff is 4.88e-05 s⁻¹ and the kon was 2.55e+06 M⁻¹ s⁻¹.

B5: M711 (antibody, V domains shown)
VH: EVQLVQSGAEVKKPGESLKISCKGSGYAFSSSWMNWVRQMPGKGLEWMGRIYSGDADTNYNQKFKGQVTISADKSISTAYLQWSSLKASDTAMYYCARSDYYGDYGFAYWGQGTLVTVSS
VL: DIQMTQSPSSLSASVGDRVTITCKASQSVDYAGESFMNWYQQKPGKAPKLLIYAASNLESGVPSRFSGSGSGTDFTLTISSLQPEDFATYYCQQSNEDPYTFGQGTKVEIK
notes: also called single-gene DNA ID 711
For the molecule B5, the “NF-kB Assay IC50” value in [8] turned out to be 0.258 nM. Besides, in test [9], the affinity, expressed as Kd, was 0.03 nM; the koff amounted to 5.82e-05 s⁻¹; the kon was 1.97e+06 M⁻¹ s⁻¹.

B6: C2177 (antibody, V domains shown)
VH: QVQLQQSGPELVKPGASVKISCKASGYAFSSSWMNWVKQRPGKGLEWIGRIYPGDGDTNYNGKFKGKATLTADKSSSTAYMQLSSLTSEDSAVYFCARSDYYGDYGFAYWGQGTLVTVSA
VL: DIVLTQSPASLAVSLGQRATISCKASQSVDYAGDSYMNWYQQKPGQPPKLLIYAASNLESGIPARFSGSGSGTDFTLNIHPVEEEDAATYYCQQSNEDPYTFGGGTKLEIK
notes: also called C2177 hybridoma mAb
For the molecule B6, the IC50 in test [10] amounted to 0.063 µg/mL. In test [11], this molecule displayed a Kd of 3.07 nM. Further, in [12], the “Agonism at 50 ug/ml (fold-increase in reporter gene signal relative to isotype control)” value was 1.85 fold and the “NF-kB reporter IC50” value came out at 0.04 µg/mL. In addition, in test [13], the “Plasma blast differentiation % Inhibition at 2.5 ug/ml” value was 78%, the “T-Cell Proliferation % Inhibition at highest concentration (30 ug/ml)” value is 75.4% and the “T-Cell Proliferation - CD4+ Cells IC50” value was found to be 0.245 µg/mL.

B7: M40 (antibody, human IgG1, V domains shown)
VH: QVQLQQSGPELVKPGASVKISCKASGYAFSSSWMNWVKQRPGKGLEWIGRIYPGDGDTNYNGKFKGKATLTADKSSSTAYMQLSSLTSEDSAVYFCARSDYYGDYGFAYWGQGTLVTVSA
VL: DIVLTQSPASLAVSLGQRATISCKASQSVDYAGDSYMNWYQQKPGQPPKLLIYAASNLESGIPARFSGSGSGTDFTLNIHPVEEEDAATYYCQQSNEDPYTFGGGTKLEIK
notes: chimeric; also called C2177 parent; C2177 parent chimera
As for B7, the “NF-kB Assay IC50” value in test [8] came out at 0.466 nM. Also, binding in test [3] was put at a Kd of 0.96 nM. Moreover, the “NFkB IC50” value in [4] is 0.14 nM. In test [7], the ELISA signal stood at 1. In [9], this molecule showed a Kd of 1.24 nM, a koff of 0.00132 s⁻¹ and a kon of 1.06e+06 M⁻¹ s⁻¹.

B8: M91 (antibody, human IgG1, V domains shown)
VH: QVQLVESGGGLVKPGGSLRLSCAASGFTFSSYTMSWIRQAPGKGLEWVSYISSGGGNTYYPDSVKGRFTISRDNAKNSLYLQMNSLRAEDTAVYYCARHRGNPFDYWGQGTLVTVSS
VL: DIQMTQSPSSLSASVGDRVTITCRASKSVSTSGYSFMHWYQQKPGKAPKLLIYLASNLESGVPSRFSGSGSGTDFTFTISSLQPEDIATYYCQHSRELPWTFGQGTKVEIK
notes: also called H31/L42; C2191 HFR variant
In test [3], B8 had a Kd of 7.9 nM. Further, in test [4], the “NFkB IC50” value was 0.28 nM. In addition, in test [7], the ELISA signal came out at 1.09.

B9: M160 (antibody, human IgG4, V domains shown)
VH: QVQLVQSGAEVKKPGASVKVSCKASGYAFSSSWMNWVRQAPGQGLEWMGRIYSGDGDTNYNGKFKGRVTMTRDTSTSTVYMELSSLRSEDTAVYYCARSDYYGDYGFAYWGQGTLVTVSS
VL: DIQMTQSPSSLSASVGDRVTITCKASQSVDYAGDSFMNWYQQKPGKAPKLLIYAASNLESGVPSRFSGSGSGTDFTLTISSLQPEDFATYYCQQSNEDPYTFGQGTKVEIK
notes: also called H196,L219
In test [14], B9 had a Kd of 0.108 nM, a koff of 0.000223 s⁻¹ and a kon of 2.07e+06 M⁻¹ s⁻¹. In addition, the “fold decrease in KD against the parental mAb M159” value (“fold decrease in KD” for short) in test [15] came to 20 fold. In test [16], this molecule displayed a dissociation constant Kd of 0.117 nM, a koff of 0.00018 s⁻¹ and a kon of 1.6e+06 M⁻¹ s⁻¹. Also, the Kd in test [17] turned out to be 0.12 nM.

B10: M713 (antibody, V domains shown)
VH: QVQLVQSGAEVKKPGASVKVSCKASGYAFSSSWMNWVRQAPGQGLEWMGRIYSGDADTNYAQKFKGRVTMTRDTSTSTVYMELSSLRSEDTAVYYCARSDYYGDYGFAYWGQGTLVTVSS
VL: DIQMTQSPSSLSASVGDRVTITCKASQSVDYAGESFMNWYQQKPGKAPKLLIYAASNLESGVPSRFSGSGSGTDFTLTISSLQPEDFATYYCQQSNEDPYTFGQGTKVEIK
notes: also called single-gene DNA ID 713
For the molecule B10, the “NF-kB Assay IC50” value in test [8] turned out to be 0.296 nM. Besides, in test [9], the Kd worked out at 0.056 nM, the koff was determined as 1.16e-05 s⁻¹ and the kon worked out at 206000 M⁻¹ s⁻¹.

B11: M158 (antibody, human IgG4, V domains shown)
VH: QVQLVQSGAEVKKPGASVKVSCKASGYAFSSSWMNWVRQAPGQGLEWMGRIYSGDGDTNYNGKFKGRVTMTRDTSTSTVYMELSSLRSEDTAVYYCARSDYYGDYGFAYWGQGTLVTVSS
VL: DIQMTQSPSSLSASVGDRVTITCKASQSVDYAGDSYMNWYQQKPGKAPKLLIYAASNLESGVPSRFSGSGSGTDFTLTISSLQPEDFATYYCQQSNEDPYTFGQGTKVEIK
notes: also called H196,L220
Turning to B11, the “fold decrease in KD” value in [15] turned out to be 6 fold. In [16], this molecule gave a Kd of 0.439 nM, a koff of 0.00066 s⁻¹ and a kon of 1.5e+06 M⁻¹ s⁻¹. For the same molecule, the Kd in [17] turned out to be 0.36 nM.

B12: M166 (antibody, human IgG4, V domains shown)
VH: QVQLVQSGAEVKKPGASVKVSCKASGYAFSSSWMNWVRQAPGQGLEWMGRIYSGDGDTNYNGKFKGRVTMTRDTSTSTVYMELSSLRSEDTAVYYCARSDYYGDYGFAYWGQGTLVTVSS
VL: DIQMTQSPSSLSASVGDRVTITCKASQSVDYAHESFMNWYQQKPGKAPKLLIYAASNLESGVPSRFSGSGSGTDFTLTISSLQPEDFATYYCQQSNEDPYTFGQGTKVEIK
notes: also called H196,L217
In test [14], B12 yielded a Kd of 0.127 nM, a koff of 0.000234 s⁻¹ and a kon of 1.84e+06 M⁻¹ s⁻¹. Moreover, the “fold decrease in KD” value in [15] came to 20 fold. Also, in test [16], the Kd stood at 0.126 nM, the koff came to 0.000203 s⁻¹ and the kon was determined as 1.62e+06 M⁻¹ s⁻¹. This molecule displayed a Kd in test [17] of 0.1 nM.

(Values after patent US20130243795A1 (Janssen / Centocor, published 2013).)
